# Source: patent publication US20250019450A1 (DIAGONAL THERAPEUTICS, published 2025)
# Target: human IL-12 receptor (IL-12Rβ1 and IL-12Rβ2) on HEK-Blue IL-12 cells (human, UniProt P42701 24-662; Q99665 24-862)
# Experiment: cell-based or functional assay
# human IL-12 receptor (IL-12Rβ1 and IL-12Rβ2) on HEK-Blue IL-12 cells, sequence (Q99665 24-862, chain 2 of 2, other chains not shown): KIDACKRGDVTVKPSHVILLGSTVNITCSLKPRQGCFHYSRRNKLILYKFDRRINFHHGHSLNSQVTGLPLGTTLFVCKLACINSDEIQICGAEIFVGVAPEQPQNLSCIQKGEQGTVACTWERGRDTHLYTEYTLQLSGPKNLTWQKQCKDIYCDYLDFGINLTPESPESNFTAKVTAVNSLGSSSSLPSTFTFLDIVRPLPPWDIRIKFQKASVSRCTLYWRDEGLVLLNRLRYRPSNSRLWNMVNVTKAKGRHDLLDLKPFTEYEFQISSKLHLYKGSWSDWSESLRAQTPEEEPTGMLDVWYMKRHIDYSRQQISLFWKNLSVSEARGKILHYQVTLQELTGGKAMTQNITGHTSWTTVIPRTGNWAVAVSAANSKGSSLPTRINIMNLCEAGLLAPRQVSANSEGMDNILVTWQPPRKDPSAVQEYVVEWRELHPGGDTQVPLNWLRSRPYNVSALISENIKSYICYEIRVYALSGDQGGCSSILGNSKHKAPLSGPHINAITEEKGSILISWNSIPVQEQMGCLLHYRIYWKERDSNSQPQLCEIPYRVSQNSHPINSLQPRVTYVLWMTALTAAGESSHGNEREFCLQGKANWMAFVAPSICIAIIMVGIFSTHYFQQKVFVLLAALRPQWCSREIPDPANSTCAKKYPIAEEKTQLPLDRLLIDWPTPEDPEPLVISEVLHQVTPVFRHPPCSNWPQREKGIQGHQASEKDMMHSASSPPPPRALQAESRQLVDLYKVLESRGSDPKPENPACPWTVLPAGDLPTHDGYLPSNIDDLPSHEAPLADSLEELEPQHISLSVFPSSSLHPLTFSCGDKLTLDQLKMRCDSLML
Max Absorbance,EC50,Binder
0.27,,"DGL518 (bispecific antibody, V domains shown) V domain 1: EVQLVESGGGLVQPGGSLRLFCAASRSIFNINIMGWYRQAPGKQREWLASITSGGSTFYADSVKDRFTISRDSVKNTVYLQMNSLKPEDTAAYYCNRYRSVPLNTVYPWGQGTLVTVEP V domain 2: QVQLVESGGGLVRPGGSLRLSCAASGFTFSSNGMHWFRQAPGKGLEWVSSIGSGGTSIYYADSVKGRFTISRDNAKNTLYLQMNSLKSDDTAVYYCSKEVTGATRGQGTQVTVEP"
0.29,,"DGL413 (bispecific antibody, human IgG1, kappa) heavy 1: not shown heavy 2: QVQLVESGGGLVQAGGSLRLSCAASGRTFSRYRMGWFRQAPGKEREFVAAITKSGATTYDADSVKGRFTISRDNAKNTLYLQMNSLKPEDTAVYYCAASYHSNWWPKNADEYAYWGQGTQVTVEPKSSDKTHTCPPCPAPEAAGAPSVFLFPPKPKDTLMISRTPEVTCVVVDVSHEDPEVKFNWYVDGVEVHNAKTKPREEQYNSTYRVVSVLTVLHQDWLNGKEYKCKVSNKALPAPIEKTISKAKGQPREPQVCTLPPSRDELTKNQVSLSCAVKGFYPSDIAVEWESNGQPENNYKTTPPVLDSDGSFFLVSKLTVDKSRWQQGNVFSCSVMHEALHNRFTQKSLSLSPG light: DIQMTQSPSSLSASVGDRVTITCRASQGIGNYLAWFQQRPGKAPKSLIYAASSLQSGVPSKFSGSGSGTDFTLTISSLQPADFAIYYCQQYNIYPYTFGPGTRLEIKRTVAAPSVFIFPPSDEQLKSGTASVVCLLNNFYPREAKVQWKVDNALQSGNSQESVTEQDSKDSTYSLSSTLTLSKADYEKHKVYACEVTHQGLSSPVTKSFNRGEC"
0.33,,"DGL594 (bispecific antibody, V domains shown) V domain 1: EVQLVESGGGLVQAGGSLRLSCAASGSKFSFNAMGWYRQTPGKQRELVAIIINGDMINYADSVKGRFTISRDNAKNTMYLQMNSLKPEDTAVYYCKMTRYVYDYWGQGTQVTVEP V domain 2: QVQLVESGGGLVQPGGSLRLSCAASGFTFSSKAMHWFRQAPGKGLEWVSSINSGGAITYYKDSVKGRFTVSRDNAKNILYLEMNSLKPEDTALYYCATDTDGRTRGQGTQVTVEP"
0.27,,"DGL496 (bispecific antibody, V domains shown) V domain 1: EVQLVESGGGLVQAGGSLRLSCAASGLTFRNYAMAWFRQAPGKEREFVAGITWGGGLTHYVDSVKGRFTISRDNGKNTVYLQMNSLKSEDTAVYYCAGKTQGSTWYHLTPDGYDYWGQGTQVTVEP V domain 2: QVQLVESGGGLVQPGGSLRLSCAASGFTFSSKAMHWFRQAPGKGLEWVSSINSGGAITYYKDSVKGRFTVSRDNAKNILYLEMNSLKPEDTALYYCATDTDGRTRGQGTQVTVEP"
0.32,,"DGL587 (bispecific antibody, V domains shown) V domain 1: QVQLVESGGGLVQAGGSLRLSCAASGRTFSSYVMGWFRQAPGQEREFVAAIMRNGIMTYYADSVKGRFTISRDNAKNTVYLQMNTLKPDDTAVYYCAAASRVGVSISQSSSYTSWGQGTQVTVEP V domain 2: QVQLVESGGGLVQPGGSLRLSCAASGFTFSSKAMHWFRQAPGKGLEWVSSINSGGAITYYKDSVKGRFTVSRDNAKNILYLEMNSLKPEDTALYYCATDTDGRTRGQGTQVTVEP"
0.32,,"DGL497 (bispecific antibody, V domains shown) V domain 1: EVQLVESGGGLVQAGGSLRLSCAASGLTFRNYAMAWFRQAPGKEREFVAGITWGGGLTHYVDSVKGRFTISRDNGKNTVYLQMNSLKSEDTAVYYCAGKTQGSTWYHLTPDGYDYWGQGTQVTVEP V domain 2: QVQLVESGGGLVQPGGSLRLSCAASGFTFSNYAMSWIRQGPERGFEWVSRINSGGGTTSYADSVKGRFTISRDNAKNTLYLQMNSLKPEDTAVYYCAKHSHPDYSSNYYRPGQGTQVTVEP"
0.26,,"DGL505 (bispecific antibody, V domains shown) V domain 1: EVQLVESGGGLVQAGGSLRLSCAASGLTFRNYAMAWFRQAPGKEREFVAGITWGGGLTHYVDSVKGRFTISRDNGKNTVYLQMNSLKSEDTAVYYCAGKTQGSTWYHLTPDGYDYWGQGTQVTVEP V domain 2: QVQLVESGGGLVQLGDSLRLSCAASGRGFSSWTMAWFRQALGKRREFVAAITATGARTSSAESEGRFTISRDNAKNMVFLQMNSLKAEDTAVYYCAATGIASWDPGMADKYTYWGQGTQVTVEP"
0.28,,"DGL508 (bispecific antibody, V domains shown) V domain 1: EVQLVESGGGLVQAGGSLRLSCAASGLTFRNYAMAWFRQAPGKEREFVAGITWGGGLTHYVDSVKGRFTISRDNGKNTVYLQMNSLKSEDTAVYYCAGKTQGSTWYHLTPDGYDYWGQGTQVTVEP V domain 2: QVQLVESGGGLVQAGGSLRLSCAASGRTFSRYIMGWFRQATGKEREFVAAISWSGLSTHYADSVQGRFTISRDNAENTVYLQMNSLKPEDTAVYYCAADRHWETRLLPREYDYWGQGTQVTVEP"
0.31,,"DGL506 (bispecific antibody, V domains shown) V domain 1: EVQLVESGGGLVQAGGSLRLSCAASGLTFRNYAMAWFRQAPGKEREFVAGITWGGGLTHYVDSVKGRFTISRDNGKNTVYLQMNSLKSEDTAVYYCAGKTQGSTWYHLTPDGYDYWGQGTQVTVEP V domain 2: QVQLVESGGGLVQAGGSLKLSCAASGGTFSSYAMGWFRQAPGKEREFVAAIMRSGGTTVYVNSVKGRFTVSRDNAKNTVYLQMNSLKPEDAAVYYCAAGRPVSRTSYYTYTYPHDYDYWGQGTQVSVEP"
0.31,,"DGL603 (bispecific antibody, V domains shown) V domain 1: EVQLVESGGGLVQPGGSLRLSCAASGFTFQNYAMSWLRKAPGEGLEWVSVINSGGGSTLYADSVKGRFTISRDNAKNTLYLQMHSLKSEDTAVYFCAKRRDDSTFGSLLYTHRGQGTQVTVEP V domain 2: QVQLVESGGGLVQPGGSLRLSCAASGFTFSNYAMSWVRQAPGKGLEWVSAINSDGTSTSYADSVKGQFTISRDNAKNTLYLQMNSLKPEDTAVYYCTKWEGDTDSDYKFKDYWGQGTQVTVEP"
0.31,,"DGL461 (bispecific antibody, V domains shown) V domain 1: EVQLVESGGGLVQPGGSLRLSCAASGFTFQNYAMSWLRKAPGEGLEWVSVINSGGGSTLYADSVKGRFTISRDNAKNTLYLQMHSLKSEDTAVYFCAKRRDDSTFGSLLYTHRGQGTQVTVEP V domain 2: QVQLVESGGGLVQPGGSLRLSCAASGFTFEPYDMSWFRQAPGKGPEWVSAIDKGGGAGATYYADSVKGRFTISRDNAKKTLYLQMKSLKPEDTAVYYCAITAGPYSDSTPRVAYRGEGTQVTVEP"
0.28,1.6e-11 M (implied),"DGL397 (bispecific antibody, human IgG1, kappa) heavy 1: not shown heavy 2: QVQLVESGGGLVQAGGSLRLSCAASGRIFSAYRMGWFRQAPGKEREFVAGITWRGQTTYYAASVKGRFTISKDNAKKTVYLQMNSLKPEETAVYYCAVETNGLGRWDRPSEYDYWGQGTQVTVEPKSSDKTHTCPPCPAPEAAGAPSVFLFPPKPKDTLMISRTPEVTCVVVDVSHEDPEVKFNWYVDGVEVHNAKTKPREEQYNSTYRVVSVLTVLHQDWLNGKEYKCKVSNKALPAPIEKTISKAKGQPREPQVCTLPPSRDELTKNQVSLSCAVKGFYPSDIAVEWESNGQPENNYKTTPPVLDSDGSFFLVSKLTVDKSRWQQGNVFSCSVMHEALHNRFTQKSLSLSPG light: DIQLTQSPSFLSASVGDRVTITCRASQGISSYLAWYQQQPGKPPKLLIYAASTLHSGVPSRFSGSGSGTEFTLTISSLQPEDFATYYCQQLNRYPYTCGQGTKLEIKRTVAAPSVFIFPPSDEQLKSGTASVVCLLNNFYPREAKVQWKVDNALQSGNSQESVTEQDSKDSTYSLSSTLTLSKADYEKHKVYACEVTHQGLSSPVTKSFNRGEC"
0.26,2.3e-10 M (implied),"DGL395 (bispecific antibody, human IgG1, kappa) heavy 1: not shown heavy 2: QVQLVESGGGLVQAGGSLRLSCAASGRTFSSYAMGWFRQAPGKEREFVSAISWSGLSTYYVESVQGRFTISRDNAKNTVYLQMNSLKPEDTAVYYCAASRIYTNYVARSYEYDDWGQGTQVTVEPKSSDKTHTCPPCPAPEAAGAPSVFLFPPKPKDTLMISRTPEVTCVVVDVSHEDPEVKFNWYVDGVEVHNAKTKPREEQYNSTYRVVSVLTVLHQDWLNGKEYKCKVSNKALPAPIEKTISKAKGQPREPQVCTLPPSRDELTKNQVSLSCAVKGFYPSDIAVEWESNGQPENNYKTTPPVLDSDGSFFLVSKLTVDKSRWQQGNVFSCSVMHEALHNRFTQKSLSLSPG light: DIQLTQSPSFLSASVGDRVTITCRASQGISSFLAWYQQKPGKAPKLLIYAASTLQSGVPSRFSGSGSGTEFTLTISSLQPEDFATYYCQQLNGYPFTFGPGTKVDIKRTVAAPSVFIFPPSDEQLKSGTASVVCLLNNFYPREAKVQWKVDNALQSGNSQESVTEQDSKDSTYSLSSTLTLSKADYEKHKVYACEVTHQGLSSPVTKSFNRGEC"
0.26,,"DGL405 (bispecific antibody, human IgG1, kappa) heavy 1: not shown heavy 2: QVQLVESGGGLVQAGGSLRLSCAASGRIFSAYRMGWFRQAPGKEREFVAGITWRGQTTYYAASVKGRFTISKDNAKKTVYLQMNSLKPEETAVYYCAVETNGLGRWDRPSEYDYWGQGTQVTVEPKSSDKTHTCPPCPAPEAAGAPSVFLFPPKPKDTLMISRTPEVTCVVVDVSHEDPEVKFNWYVDGVEVHNAKTKPREEQYNSTYRVVSVLTVLHQDWLNGKEYKCKVSNKALPAPIEKTISKAKGQPREPQVCTLPPSRDELTKNQVSLSCAVKGFYPSDIAVEWESNGQPENNYKTTPPVLDSDGSFFLVSKLTVDKSRWQQGNVFSCSVMHEALHNRFTQKSLSLSPG light: DIQLTQSPSFLSASVGYRVTITCRASQGISSYLAWYQQKPGKAPQLLIYAASTLQSGVPSRFSGRGSGTEFTLTISSLQPEDFATYYCQQLNGYPFTFGPGTKVNIKRTVAAPSVFIFPPSDEQLKSGTASVVCLLNNFYPREAKVQWKVDNALQSGNSQESVTEQDSKDSTYSLSSTLTLSKADYEKHKVYACEVTHQGLSSPVTKSFNRGEC"
0.29,,"DGL479 (bispecific antibody, V domains shown) V domain 1: QVQLVESGGGLVQAGGSLRLSCAAPGRYAVGWFRQAPGKEYEFVAAITVSGGSKYYEDSVKGRFAISRDNAKNTVYLQMNSLKAEDTAVYYCAARTPKFGSGWYNRRGEYDYWGQGTQVTVEP V domain 2: QVQLVESGGGLVQAGGSLRLSCAASGRTFSSYAMGWFRQAPGKEREFVSAISWSGLSTYYVESVQGRFTISRDNAKNTVYLQMNSLKPEDTAVYYCAASRIYTNYVARSYEYDDWGQGTQVTVEP"
0.25,,"DGL490 (bispecific antibody, V domains shown) V domain 1: QVQLVESGGGLVQAGGSLRLSCAASARIFNSYAVAWFRQTPGKEREFVASISWSGGSTNYADSVKGRFTISRDNAKNTVFLQMNSLKPADTAVYYCAADRNYYPSVLGKYTYWGQGTQVTVEP V domain 2: QVQLVESGGGLVQAGGSLRLSCAASGRTFSSYAMGWFRQAPGKEREFVSAISWSGLSTYYVESVQGRFTISRDNAKNTVYLQMNSLKPEDTAVYYCAASRIYTNYVARSYEYDDWGQGTQVTVEP"
